This passage reports Kd results from article PMC3479137.

The target of assay [1] is fHbp subfamily A (Neisseria meningitidis) (UniProt Q9JXV4). Particulars: cited from earlier work.
Assay [2] addresses fHbp subfamily B (Neisseria meningitidis) (UniProt Q9JXV4). The note with it: cited from earlier work.
Assay [3] has as its target fHbp_10 (1.P10) with D184 replaced by K184 (Neisseria meningitidis). The experiment in a line: SPR; ProteOn XPR36 (BioRad); fHbp immobilized on a ProteOn GLM sensor chip; increasing concentrations of fH67 injected at 40 µl/min, dissociation 300 seconds; KD calculated with ProteOn manager software; average KD.
Assay [4] deals with fHbp_10 (1.P10), factor H binding protein with aspartic acid at position 184 (Neisseria meningitidis) (UniProt E6MV22). Described as above.
Chain of fHbp_10 (1.P10), factor H binding protein with aspartic acid at position 184 (Neisseria meningitidis) (E6MV22 20-274): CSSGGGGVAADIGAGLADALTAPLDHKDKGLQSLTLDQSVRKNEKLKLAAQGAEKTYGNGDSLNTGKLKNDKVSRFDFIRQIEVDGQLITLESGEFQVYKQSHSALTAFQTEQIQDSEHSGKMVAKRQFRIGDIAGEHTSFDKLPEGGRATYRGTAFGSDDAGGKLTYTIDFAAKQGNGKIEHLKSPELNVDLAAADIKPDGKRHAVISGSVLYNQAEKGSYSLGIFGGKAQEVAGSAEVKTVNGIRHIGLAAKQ

Chain of factor H (P08603 19-1231): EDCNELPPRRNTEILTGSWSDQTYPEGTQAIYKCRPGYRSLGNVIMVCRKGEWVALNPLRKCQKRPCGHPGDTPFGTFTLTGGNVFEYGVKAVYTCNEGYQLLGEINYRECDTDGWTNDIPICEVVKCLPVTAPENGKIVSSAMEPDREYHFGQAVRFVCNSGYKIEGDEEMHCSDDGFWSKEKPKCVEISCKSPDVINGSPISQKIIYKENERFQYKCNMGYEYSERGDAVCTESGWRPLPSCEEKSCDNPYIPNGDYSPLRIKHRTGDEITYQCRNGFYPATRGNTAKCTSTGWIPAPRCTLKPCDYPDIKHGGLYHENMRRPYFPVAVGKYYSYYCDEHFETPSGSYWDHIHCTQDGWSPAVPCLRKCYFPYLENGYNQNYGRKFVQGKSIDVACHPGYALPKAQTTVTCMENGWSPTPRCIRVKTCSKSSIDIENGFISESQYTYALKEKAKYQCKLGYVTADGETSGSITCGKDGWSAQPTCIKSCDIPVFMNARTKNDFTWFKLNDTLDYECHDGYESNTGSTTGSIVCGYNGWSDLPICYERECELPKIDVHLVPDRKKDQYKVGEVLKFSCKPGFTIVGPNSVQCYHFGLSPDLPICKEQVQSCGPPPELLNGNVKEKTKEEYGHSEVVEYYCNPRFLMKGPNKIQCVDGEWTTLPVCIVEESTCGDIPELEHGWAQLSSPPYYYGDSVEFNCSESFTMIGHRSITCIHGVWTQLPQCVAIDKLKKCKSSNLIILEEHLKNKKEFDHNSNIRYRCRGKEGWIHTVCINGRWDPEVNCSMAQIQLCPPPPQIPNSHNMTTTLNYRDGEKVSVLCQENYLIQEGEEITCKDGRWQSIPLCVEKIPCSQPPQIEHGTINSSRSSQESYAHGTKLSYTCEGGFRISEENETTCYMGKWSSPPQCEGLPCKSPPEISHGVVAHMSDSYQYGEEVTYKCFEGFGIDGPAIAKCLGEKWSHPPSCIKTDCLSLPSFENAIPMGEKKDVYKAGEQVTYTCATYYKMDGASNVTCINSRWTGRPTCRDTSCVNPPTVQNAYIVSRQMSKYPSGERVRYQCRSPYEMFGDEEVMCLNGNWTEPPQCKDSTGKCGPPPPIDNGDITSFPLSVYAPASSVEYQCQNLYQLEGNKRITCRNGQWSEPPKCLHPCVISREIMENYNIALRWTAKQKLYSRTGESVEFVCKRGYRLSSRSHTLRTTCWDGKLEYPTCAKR
Chain of fHbp subfamily A (Neisseria meningitidis) (Q9JXV4 20-274): as the sequence (E6MV22 20-274) above
Chain of fHbp subfamily B (Neisseria meningitidis) (Q9JXV4 20-274): as the sequence (E6MV22 20-274) above

A word on the Kd: it is the concentration at which binding is half-saturated. For factor H (from UniProt P08603), the Kd in assay [1] is 0.029 µM; in assay [2], 0.153 µM.

“recombinant purified human fH (SCR67) (from UniProt P08603 19-1231) (domain or fragment)”: the Kd is 0.026 µM in assay [3] and 0.0174 µM in assay [4].
